Where no end group is shown, it is not given here. [ ]: non-standard residue; d: D form. pS = N[C@@H](COP(=O)(O)O)C(=O)O
Target: σ2 subunit of the AP2 core (σ2-adaptin 1-143) (mouse, UniProt P62743 1-142)
Assay: crystal structure

Chain of σ2 subunit of the AP2 core (σ2-adaptin 1-143) (P62743 whole entry, looked up, tested part not stated): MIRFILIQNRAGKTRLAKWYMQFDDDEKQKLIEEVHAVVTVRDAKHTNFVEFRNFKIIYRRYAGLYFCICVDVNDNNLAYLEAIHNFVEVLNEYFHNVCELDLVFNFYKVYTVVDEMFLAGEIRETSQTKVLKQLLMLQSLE

binding result: binds
B1: CD4 dileucine peptide RM(phosphoS)QIKRLLSE (Q peptide), as co-crystallised (peptide)
peptide: RM[pS]QIKRLLSE

Source: article PMC4340503 (Nature, 2008)
